In the data set the target is YB-1 (Δ1-2) (UniProt P67809 1-230). The data set is described as follows: fluorescence anisotropy; DNA binding similar to full-length; EC50 within 1100-3100 nM, exact value only in figure; 50 mM Tris-HCl pH 8.0, 40 mM NaCl, 1 mM DTT, 100 ug/ml BSA, 50 nM FAM-DNA, 25 C (anisotropy). PAR EMSA rows left out: PAR is a heterogeneous polymer without a defined nucleic acid sequence. The following applies: protein: recombinant; label: 5'-FAM on strand 1; nicked 32-bp duplex, blunt ends; nick opposite strand 1 positions 15/16.
Sequence of YB-1 (Δ1-2) (P67809 1-230, stated change not applied): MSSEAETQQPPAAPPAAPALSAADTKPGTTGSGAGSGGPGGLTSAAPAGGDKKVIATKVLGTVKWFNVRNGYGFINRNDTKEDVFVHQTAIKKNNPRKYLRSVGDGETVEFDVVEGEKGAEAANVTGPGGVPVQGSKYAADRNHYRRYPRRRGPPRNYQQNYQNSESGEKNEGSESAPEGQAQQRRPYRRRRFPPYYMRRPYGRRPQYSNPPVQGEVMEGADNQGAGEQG

Data on one molecule can be found in paper PMC9253770, “The C-Terminal Domain of Y-Box Binding Protein 1 Exhibits Structure-Specific Binding to Poly(ADP-Ribose), Which Regulates PARP1 Activity”.

B1: Nick (FAM-labeled nicked DNA duplex) (dsDNA)
DNA 1: CCGCTATTTCAACCCTTTGCAGTCCCAGAAGG
DNA 2: GGGTTGAAATAGCGG
DNA 3: CCTTCTGGGACTGCAAA
modifications: phosphate on the 17-mer (printed as 5'-p…)
As to B1, the binding result is “binds”.
